Laboratory results: article PMC4828312

Columns and labels:
[1] = target: Human recombinant tubulin β-3 (TUBB3) (human) (UniProt Q13509); experiment: SPR
[2] = target: Assembled microtubules (containing ~25% of TUBB3) (porcine); experiment: SPR

Sequence of Human recombinant tubulin β-3 (TUBB3) (human) (Q13509 whole entry): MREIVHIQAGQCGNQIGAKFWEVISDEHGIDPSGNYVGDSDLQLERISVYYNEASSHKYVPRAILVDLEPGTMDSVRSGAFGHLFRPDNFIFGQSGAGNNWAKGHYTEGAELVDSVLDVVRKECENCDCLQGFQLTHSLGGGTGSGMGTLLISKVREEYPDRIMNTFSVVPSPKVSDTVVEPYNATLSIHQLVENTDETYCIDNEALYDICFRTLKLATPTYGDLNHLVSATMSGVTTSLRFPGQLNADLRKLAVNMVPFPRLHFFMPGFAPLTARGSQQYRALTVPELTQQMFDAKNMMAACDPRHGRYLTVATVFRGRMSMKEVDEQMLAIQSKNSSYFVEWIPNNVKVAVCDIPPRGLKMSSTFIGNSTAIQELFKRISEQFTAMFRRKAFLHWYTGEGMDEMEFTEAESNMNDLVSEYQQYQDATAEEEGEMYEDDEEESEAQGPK

Substance: HIV-1 envelope glycoprotein gp120, strain ADA (natural protein)
- Kd [1]: 10.3 nM
- Kd [2]: 12 nM

Substance: HIV-1 envelope glycoprotein gp120, strain IIIB (from UniProt P04578 33-511) (natural protein)
- Kd [2]: 10 nM

Substance: HIV-1 envelope glycoprotein gp120, strain MN (from UniProt P05877 32-513) (natural protein)
- Kd [2]: 62.7 nM
